Assay results published in patent US20250090676A1 (SUTRO BIOPHARMA, published 2025).

What was measured:
[1] = molecular target: T1, human folate receptor alpha (hFOLR1) (human, UniProt P15328 25-234); experiment: FACS, CHO-hFOLR1 cells;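 note: flow cytometry of serially diluted antibodies binding CHO cells stably expressing the receptor, 60 min on ice, mixed with dye-tagged parental CHO as background control, one-site specific fit with Hill slope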
T1 construct: endogenous on FOLR1-positive KB and Igrov1 cells (cell killing); also called human FolR1; FolRα

[2] = molecular target: T1, human folate receptor alpha (hFOLR1); experiment: cell-based or functional assay
[3] = molecular target: T2, murine folate receptor alpha (mouse, UniProt P35846 25-232); experiment: FACS, CHO-mFOLR1 cells;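 note: flow cytometry binding of serially diluted test antibodies to transfected CHO cells on ice, mean fluorescence intensity, parental CHO cells give background, Kd from one-site specific binding fit with Hill slope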
T2 construct: Expressed on the surface of stably transfected CHO cells; also called mouse FolR1; CHO-mouse FolR1

[4] = molecular target: T3, cynomolgus monkey folate receptor alpha (cynomolgus monkey, UniProt P15328 25-234 (human entry)); experiment: FACS, CHO-cFOLR1 cells
T3 construct: Expressed on the surface of stably transfected CHO cells; also called cyno FolR1; CHO-cyno FolR1
T3 sequence (P15328 other isoform, or with tags, fused parts or gaps limits assumed): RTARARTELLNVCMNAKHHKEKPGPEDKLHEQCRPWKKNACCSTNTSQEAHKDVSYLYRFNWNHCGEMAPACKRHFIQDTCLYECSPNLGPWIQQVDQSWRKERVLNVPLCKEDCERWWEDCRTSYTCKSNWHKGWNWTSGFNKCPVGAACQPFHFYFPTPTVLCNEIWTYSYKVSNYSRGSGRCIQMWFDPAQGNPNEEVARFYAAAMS

T1 sequence (P15328 25-234 limits assumed): as the sequence (P15328 other isoform, or with tags, fused parts or gaps limits assumed) above, with T2I, R4W, K37R, R117Q, P146A, Y171H counted along it
T2 sequence (P35846 25-232 limits assumed): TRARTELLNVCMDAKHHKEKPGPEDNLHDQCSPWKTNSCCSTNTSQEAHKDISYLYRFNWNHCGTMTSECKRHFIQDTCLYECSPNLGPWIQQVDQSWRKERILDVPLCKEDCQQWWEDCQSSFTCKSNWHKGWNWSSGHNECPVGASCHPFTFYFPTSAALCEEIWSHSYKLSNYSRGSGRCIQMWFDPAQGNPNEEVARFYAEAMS

Binder | Bmax (MFI) [1] [MFI] | Kd [1] [nM] | Igrov, 2° Antibody Cell Killing, Nb-SC239: EC50 [2] [nM] | Igrov, 2° Antibody Cell Killing, Nb-SC239: Span [2] [%] | KB, 2° Antibody Cell Killing, Nb-239: EC50 [2] [nM] | KB, 2° Antibody Cell Killing, Nb-239: Span [2] [%] | Bmax (MFI) [3] [MFI] | Kd [3] [nM] | Bmax (MFI) [4] [MFI] | Kd [4] [nM] | binding result [3]
SRP1848-A07 (antibody, V domains shown, HC variant paired with trastuzumab LC, cell-free expressed, HIS- and FLAG-tagged; also called Antibody 5) VH: EVQLVESGGGLVQPGGSLRLSCAASGFNIGYHSIHWVRQAPGKGLEWVGEIFPVDGTTDYADSVKGRFTISADTSKNTAYLHMNSLRAEDTAVYYCARGFWAWRSGYGYYLDYWGQGTLVTVSS VL: not shown | 29200 | 0.61 | 0.029 | 68 | 0.062 | 95 | 9650 | 0.9 | 23600 | 0.43 | –
SRP1848-B06 (antibody, V domains shown, HC variant paired with trastuzumab LC, cell-free expressed, HIS- and FLAG-tagged; also called Antibody 13) VH: EVQLVESGGGLVQPGGSLRLSCAASGFNISNYYIHWVRQAPGKGLEWVGGITPIDGYTDYADSVKGRFTISADTSKNTAYLQMNSLRAEDTAVYYCARGFWSWPSGYGYYQDYWGQGTLVTVSS VL: not shown | 25100 | 0.67 | 0.022 | 72 | 0.058 | 95 | – | – | 26800 | 1.21 | no binding
SRP1848-B10 (antibody, V domains shown, HC variant paired with trastuzumab LC, cell-free expressed, HIS- and FLAG-tagged; also called Antibody 16) VH: EVQLVESGGGLVQPGGSLRLSCAASGFNTTTKSIHWVRQAPGKGLEWVGEIYPRDGITDYADSVKGRFTISADTSKNTAYLQMNSLRAEDTAVYYCARGGWHWRSGYSYYLDYWGQGTLVTVSS VL: not shown | 28200 | 0.83 | – | 71 | 0.04 | 97 | 2460 | 7.3 | 21300 | 0.44 | –
SRP1848-B09 (antibody, V domains shown, HC variant paired with trastuzumab LC, cell-free expressed, HIS- and FLAG-tagged; also called Antibody 15) VH: EVQLVESGGGLVQPGGSLRLSCAAGGFNITNYYIHWVRQAPGKGLEWVGGITPVDGYTDYADRVKGRFTISADTSKNTAYLQMNSLRAEDTAVYYCARGAWSWRSGYGYYMDYWGQGTLVTVSS VL: not shown | 25200 | 0.46 | 0.027 | 74 | 0.073 | 97 | 1420 | 78 | 25200 | 0.99 | –
SRP1848-A10 (antibody, V domains shown, HC variant paired with trastuzumab LC, cell-free expressed, HIS- and FLAG-tagged; also called Antibody 8) VH: EVQLVESGGGLVQPGGSLRLSCAASGFNIRKYSIHWARQAPGKGLEWVGDIFPIDDITDYADSVKGRFTISADTSKNTAYLQMNSLRAEDTAVYYCARGSWSWPSGHSYYLDYWGQGTLVTVSS VL: not shown | 27100 | 0.66 | 0.027 | 75 | 0.033 | 96 | 10200 | 1.2 | 14800 | 0.47 | –
SRP1848-B01 (antibody, V domains shown, HC variant paired with trastuzumab LC, cell-free expressed, HIS- and FLAG-tagged; also called Antibody 9) VH: EVQLVESGGGLVQPGGSLRLSCAASGFNIRNYSIHWVRQAPGKGLEWVGEIYPVDGITDYADSVKGRFTISADTSKNTAYLQMNSLRAEDTAVYYCARGFWSWPSGYSYFLDYWGQGTLVTVSS VL: not shown | 26600 | 1.06 | 0.031 | 82 | 0.064 | 95 | 3400 | 16.4 | 23900 | 0.83 | –
SRP1848-B05 (antibody, V domains shown, HC variant paired with trastuzumab LC, cell-free expressed, HIS- and FLAG-tagged; also called Antibody 12) VH: EVQLVESGGGLVQPGGSLRLSCAASGFNISNYYIHWVRQAPGKGLEWVGGISPIDGYTDYADSMKGRFTISADTSKNTAYLQMSSLRAEDTAVYYCARGSWFWQSGYGYYLDYWGQGTLVTVSS VL: not shown | 24500 | 0.65 | 0.04 | 72 | 0.065 | 94 | – | – | 21900 | 0.64 | no binding
SRP1848-B03 (antibody, V domains shown, HC variant paired with trastuzumab LC, cell-free expressed, HIS- and FLAG-tagged; also called Antibody 10) VH: EVQLVESGGGLVQPGGSLRLSCAASGFNISMKYIHWVRQAPGKGLEWVGGITPIDGMTDYADSVKGRFTISADTSKNTAYLQMNSLRAEDTAVYYCARGSWSWPSGYSYYLDYWGQGTLVTVSS VL: not shown | 26300 | 0.82 | 0.028 | 66 | 0.05 | 94 | 2720 | 6.4 | 17200 | 0.41 | –
SRP1848-B07 (antibody, V domains shown, HC variant paired with trastuzumab LC, cell-free expressed, HIS- and FLAG-tagged; also called Antibody 14) VH: EVQLVESGGGLVQPGGSLRLSCAASGFNISRFYIHWVRQAPGKGLEWVGGISPYDGFTDYADSVKGRFTISADTSKNTAYLQMNSLRAEDTAVYYCARGSWSWPAGYGYYQDYWGQGTLVTVSS VL: not shown | 25600 | 0.66 | 0.038 | 73 | 0.079 | 96 | – | – | 25500 | 1.05 | no binding
SRP1848-B04 (antibody, V domains shown, HC variant paired with trastuzumab LC, cell-free expressed, HIS- and FLAG-tagged; also called Antibody 11) VH: EVQLVESGGGLVQPGGSLRLSCAASSFNISNHSIHWVRQAPGKGLEWVGEIYPVDGITDYADSVKGRFTISADTSKNTAYLQMNSLRAEDTAVYYCARGRYSWRAGYSYYLDYWGQGTLVTVSS VL: not shown | 27800 | 0.72 | 0.018 | 70 | 0.035 | 94 | 2190 | 17.9 | 27800 | 0.65 | –
SRP1848-A09 (antibody, V domains shown, HC variant paired with trastuzumab LC, cell-free expressed, HIS- and FLAG-tagged; also called Antibody 7) VH: EVQLVESGGGLVQPGGSLRLSCAASGFNIRKQSIHWVRQAPGKGLEWVGSIFPNDGTTDYADSVKGRFTISADTSKNTAYLQVNSLRAEDTAVYYCARGSWFWRSGYGYFLEYWGQGTLVTVSS VL: not shown | 28900 | 0.61 | 0.026 | 71 | – | 93 | 7990 | 1 | 20200 | 0.31 | –
SRP1848-A08 (antibody, V domains shown, HC variant paired with trastuzumab LC, cell-free expressed, HIS- and FLAG-tagged; also called Antibody 6) VH: EVQLVESGGGLVQPGGSLRLSCAASGSNIRKHSIHWVRQAPGKGLEWVGSIYPNDGTTDYADSVKGRFTISADTSKNTAYLQMNSLRAEDTAVYYCARGSWFWRAGYGYYLDYWGQGTLVTVSS VL: not shown | 28600 | 0.62 | 0.013 | 65 | 0.039 | 93 | 3200 | 2.5 | 26200 | 0.45 | –
